From article PMC9757748

Assays:
[1] = biological target: BcsD (purified alone via a cleavable N-terminal hexahistidine tag, Bcs^H^isD) (G. hansenii); assay: cryo-EM structure
[2] = biological target: N-terminally hexahistidine-tagged full-length BcsH (Bcs^H^isH^FL) (G. hansenii); assay: SDS-PAGE and Western blot

Row | Substance | stoichiometry N [1] | stoichiometry N [2]
1 | BcsD (purified alone via a cleavable N-terminal hexahistidine tag, Bcs^H^isD) (natural protein) | 8 | 
2 | N-terminally hexahistidine-tagged full-length BcsH (Bcs^H^isH^FL) (natural protein) |  | 2
